From PMC6706415, “Inhibition of amyloid beta toxicity in zebrafish with a chaperone-gold nanoparticle dual strategy” (Nature Communications, 2019)

Biological target: T1, amyloid beta 42 monomers (UniProt P05067 672-713)
T1 construct: Aβ42, the 42-residue peptide derived from amyloid precursor protein (APP) by proteolysis; HFIP-treated Aβ was considered as Aβm; The peptide fibrillizes during 48 h incubations at 37 °C; also called Aβ42; Aβ; source: bought: Anaspec Inc., purity ≥ 95%; HFIP-treated
Assay: zeta potential + dynamic light scattering + TEM + CD; Aβ (100 µM; for TEM the ThT ratio, 50 µM Aβ to 6.25 µM βCas) with βCas or βCas AuNPs (12.5 µM βCas equivalent), 48 h at 37 °C in deionized water
Conditions: both partners purified

B1: β casein (natural protein, UniProt P02666 16-224, looked up)
chain: RELEELNVPGEIVESLSSSEESITRINKKIEKFQSEEQQQTEDELQDKIHPFAQTQSLVYPFPGPIPNSLPQNIPPLTQTPVVVPPFLQPEVMGVSKVKEAMAPKHKEMPFPKYPVEPFTESQSLTLTDVENLHLPLPLLQSWMHQPHQPLPPTVMFPPQSVLSLSQSKVLPVPQKAVPYPQRDMPIQAFLLYQEPVLGPVRGPFPIIV
notes: β casein (βCas); Free βCas, which forms micelles in water; Probably the milk protein, which is naturally phosphorylated (surmise); also called βCas micelles
- binding result: binds
